Data as given in paper PMC6499931.

Legend:
[1] = target: human FcγRIIIa stably expressed on CHO cells (human) (UniProt P08637); experiment: flow cytometry on cells
[2] = target: human FcγRIIIa stably expressed on CHO cells (human) (UniProt P08637)

Chain of UniProt P08637 (P08637 17-254): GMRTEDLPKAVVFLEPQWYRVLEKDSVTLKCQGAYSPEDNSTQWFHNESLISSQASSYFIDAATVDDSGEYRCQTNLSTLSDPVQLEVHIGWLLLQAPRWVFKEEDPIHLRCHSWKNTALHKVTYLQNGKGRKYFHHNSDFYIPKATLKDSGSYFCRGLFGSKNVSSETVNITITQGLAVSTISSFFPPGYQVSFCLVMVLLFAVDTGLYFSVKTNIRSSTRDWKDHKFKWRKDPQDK

Row | EC50 [1] [nM] | NK cell-mediated ADCC against the FucGM1+ SCLC cell line DMS79, EC50 [2] [nmol/L] | Binder
1 | 3.5 | 0.06 | BMS-986012, nonfucosylated fully human IgG1 anti-fucosyl-GM1 antibody (antibody, V domains shown) VH: EVQLVESGGGSVQPGESLRLSCVASGFTFSRYKMNWVRQAPGKGLEWVSYISRSGRDIYYADSVKGRFTISRDNAKNSLYLQMNSLRDEDTAVYYCAGTVTTYYYDFGMDVWGQGTTVTVSS VL: DIQMTQSPSSLSASVGDRVTITCRASQGISSWLAWYQQKPEKAPKSLIYAASSLQSGVPSRFSGSGSGTDFTLTISSLQPEDFATYYCQQYNSYPPTFGGGTKVEIK
2 | 138 | 8 | 7E4, fucosylated parental anti-fucosyl-GM1 antibody in conventional fucosylated IgG1 format (antibody, V domains shown) VH: EVQLVESGGGSVQPGESLRLSCVASGFTFSRYKMNWVRQAPGKGLEWVSYISRSGRDIYYADSVKGRFTISRDNAKNSLYLQMNSLRDEDTAVYYCAGTVTTYYYDFGMDVWGQGTTVTVSS VL: DIQMTQSPSSLSASVGDRVTITCRASQGISSWLAWYQQKPEKAPKSLIYAASSLQSGVPSRFSGSGSGTDFTLTISSLQPEDFATYYCQQYNSYPPTFGGGTKVEIK
